Test [1] addresses Hsp82p:Hsp82p^V391E/LL heterodimer (S. cerevisiae), P02829.
Test [2] deals with Hsp82p:Hsp82p^LL heterodimer (S. cerevisiae), P02829.

B1: Aha1p (full length, N-terminal 6xHis tag), Q12449 1-350 (natural protein)
chain: MVVNNPNNWHWVDKNCIGWAKEYFKQKLVGVEAGSVKDKKYAKIKSVSSIEGDCEVNQRKGKVISLFDLKITVLIEGHVDSKDGSALPFEGSINVPEVAFDSEASSYQFDISIFKETSELSEAKPLIRSELLPKLRQIFQQFGKDLLATHGNDIQVPESQVKSNYTRGNQKSSFTEIKDSASKPKKNALPSSTSTSAPVSSTNKVPQNGSGNSTSIYLEPTFNVPSSELYETFLDKQRILAWTRSAQFFNSGPKLETKEKFELFGGNVISELVSCEKDKKLVFHWKLKDWSAPFNSTIEMTFHESQEFHETKLQVKWTGIPVGEEDRVRANFEEYYVRSIKLTFGFGAVL
On to B1, for which, in test [1], the apparent affinity (Kapp) from the fit of ATPase stimulation of Hsp82p:Hsp82p^V391E/LL heterodimers (1 μM + 5 μM) against Aha1p concentration (Fig. 3E) came to 0.8 µM.

B2: Hch1p (N-terminal 6xHis tag), P53834 1-153 (natural protein)
chain: MVVLNPNNWHWVDKNTLPWSKDYLNGKLTSLSTVSSDGKSKIELTQVSSITGDSNVSQRKGKPICYFDLQLSMNVKVTNLDTNKDDEDDDGILADGKLEIPEFMHDESDIPILSQGFDAFDGLVRSEFVPKVVETLLKYQDDLIKEHSKDIQV
As for B2, the inhibition of the ATPase activity of Hsp82p:Hsp82p^LL heterodimers (1 μM + 5 μM) by titrated Hch1p (~16% at 2.5 μM, ~11% at 5 μM, overcome at higher concentrations; Fig. 2C) in test [2] came out at 16%.

Values taken from article PMC5018835.
